Consider 1 substance from US20040053347A1.

In this assay the target is BRCA2 protein, endogenous in cell extracts (human) (UniProt P51587). In words: estimate from co-immunoprecipitation with anti-BRCA2 antibodies.
Chain of UniProt P51587 (P51587 whole entry): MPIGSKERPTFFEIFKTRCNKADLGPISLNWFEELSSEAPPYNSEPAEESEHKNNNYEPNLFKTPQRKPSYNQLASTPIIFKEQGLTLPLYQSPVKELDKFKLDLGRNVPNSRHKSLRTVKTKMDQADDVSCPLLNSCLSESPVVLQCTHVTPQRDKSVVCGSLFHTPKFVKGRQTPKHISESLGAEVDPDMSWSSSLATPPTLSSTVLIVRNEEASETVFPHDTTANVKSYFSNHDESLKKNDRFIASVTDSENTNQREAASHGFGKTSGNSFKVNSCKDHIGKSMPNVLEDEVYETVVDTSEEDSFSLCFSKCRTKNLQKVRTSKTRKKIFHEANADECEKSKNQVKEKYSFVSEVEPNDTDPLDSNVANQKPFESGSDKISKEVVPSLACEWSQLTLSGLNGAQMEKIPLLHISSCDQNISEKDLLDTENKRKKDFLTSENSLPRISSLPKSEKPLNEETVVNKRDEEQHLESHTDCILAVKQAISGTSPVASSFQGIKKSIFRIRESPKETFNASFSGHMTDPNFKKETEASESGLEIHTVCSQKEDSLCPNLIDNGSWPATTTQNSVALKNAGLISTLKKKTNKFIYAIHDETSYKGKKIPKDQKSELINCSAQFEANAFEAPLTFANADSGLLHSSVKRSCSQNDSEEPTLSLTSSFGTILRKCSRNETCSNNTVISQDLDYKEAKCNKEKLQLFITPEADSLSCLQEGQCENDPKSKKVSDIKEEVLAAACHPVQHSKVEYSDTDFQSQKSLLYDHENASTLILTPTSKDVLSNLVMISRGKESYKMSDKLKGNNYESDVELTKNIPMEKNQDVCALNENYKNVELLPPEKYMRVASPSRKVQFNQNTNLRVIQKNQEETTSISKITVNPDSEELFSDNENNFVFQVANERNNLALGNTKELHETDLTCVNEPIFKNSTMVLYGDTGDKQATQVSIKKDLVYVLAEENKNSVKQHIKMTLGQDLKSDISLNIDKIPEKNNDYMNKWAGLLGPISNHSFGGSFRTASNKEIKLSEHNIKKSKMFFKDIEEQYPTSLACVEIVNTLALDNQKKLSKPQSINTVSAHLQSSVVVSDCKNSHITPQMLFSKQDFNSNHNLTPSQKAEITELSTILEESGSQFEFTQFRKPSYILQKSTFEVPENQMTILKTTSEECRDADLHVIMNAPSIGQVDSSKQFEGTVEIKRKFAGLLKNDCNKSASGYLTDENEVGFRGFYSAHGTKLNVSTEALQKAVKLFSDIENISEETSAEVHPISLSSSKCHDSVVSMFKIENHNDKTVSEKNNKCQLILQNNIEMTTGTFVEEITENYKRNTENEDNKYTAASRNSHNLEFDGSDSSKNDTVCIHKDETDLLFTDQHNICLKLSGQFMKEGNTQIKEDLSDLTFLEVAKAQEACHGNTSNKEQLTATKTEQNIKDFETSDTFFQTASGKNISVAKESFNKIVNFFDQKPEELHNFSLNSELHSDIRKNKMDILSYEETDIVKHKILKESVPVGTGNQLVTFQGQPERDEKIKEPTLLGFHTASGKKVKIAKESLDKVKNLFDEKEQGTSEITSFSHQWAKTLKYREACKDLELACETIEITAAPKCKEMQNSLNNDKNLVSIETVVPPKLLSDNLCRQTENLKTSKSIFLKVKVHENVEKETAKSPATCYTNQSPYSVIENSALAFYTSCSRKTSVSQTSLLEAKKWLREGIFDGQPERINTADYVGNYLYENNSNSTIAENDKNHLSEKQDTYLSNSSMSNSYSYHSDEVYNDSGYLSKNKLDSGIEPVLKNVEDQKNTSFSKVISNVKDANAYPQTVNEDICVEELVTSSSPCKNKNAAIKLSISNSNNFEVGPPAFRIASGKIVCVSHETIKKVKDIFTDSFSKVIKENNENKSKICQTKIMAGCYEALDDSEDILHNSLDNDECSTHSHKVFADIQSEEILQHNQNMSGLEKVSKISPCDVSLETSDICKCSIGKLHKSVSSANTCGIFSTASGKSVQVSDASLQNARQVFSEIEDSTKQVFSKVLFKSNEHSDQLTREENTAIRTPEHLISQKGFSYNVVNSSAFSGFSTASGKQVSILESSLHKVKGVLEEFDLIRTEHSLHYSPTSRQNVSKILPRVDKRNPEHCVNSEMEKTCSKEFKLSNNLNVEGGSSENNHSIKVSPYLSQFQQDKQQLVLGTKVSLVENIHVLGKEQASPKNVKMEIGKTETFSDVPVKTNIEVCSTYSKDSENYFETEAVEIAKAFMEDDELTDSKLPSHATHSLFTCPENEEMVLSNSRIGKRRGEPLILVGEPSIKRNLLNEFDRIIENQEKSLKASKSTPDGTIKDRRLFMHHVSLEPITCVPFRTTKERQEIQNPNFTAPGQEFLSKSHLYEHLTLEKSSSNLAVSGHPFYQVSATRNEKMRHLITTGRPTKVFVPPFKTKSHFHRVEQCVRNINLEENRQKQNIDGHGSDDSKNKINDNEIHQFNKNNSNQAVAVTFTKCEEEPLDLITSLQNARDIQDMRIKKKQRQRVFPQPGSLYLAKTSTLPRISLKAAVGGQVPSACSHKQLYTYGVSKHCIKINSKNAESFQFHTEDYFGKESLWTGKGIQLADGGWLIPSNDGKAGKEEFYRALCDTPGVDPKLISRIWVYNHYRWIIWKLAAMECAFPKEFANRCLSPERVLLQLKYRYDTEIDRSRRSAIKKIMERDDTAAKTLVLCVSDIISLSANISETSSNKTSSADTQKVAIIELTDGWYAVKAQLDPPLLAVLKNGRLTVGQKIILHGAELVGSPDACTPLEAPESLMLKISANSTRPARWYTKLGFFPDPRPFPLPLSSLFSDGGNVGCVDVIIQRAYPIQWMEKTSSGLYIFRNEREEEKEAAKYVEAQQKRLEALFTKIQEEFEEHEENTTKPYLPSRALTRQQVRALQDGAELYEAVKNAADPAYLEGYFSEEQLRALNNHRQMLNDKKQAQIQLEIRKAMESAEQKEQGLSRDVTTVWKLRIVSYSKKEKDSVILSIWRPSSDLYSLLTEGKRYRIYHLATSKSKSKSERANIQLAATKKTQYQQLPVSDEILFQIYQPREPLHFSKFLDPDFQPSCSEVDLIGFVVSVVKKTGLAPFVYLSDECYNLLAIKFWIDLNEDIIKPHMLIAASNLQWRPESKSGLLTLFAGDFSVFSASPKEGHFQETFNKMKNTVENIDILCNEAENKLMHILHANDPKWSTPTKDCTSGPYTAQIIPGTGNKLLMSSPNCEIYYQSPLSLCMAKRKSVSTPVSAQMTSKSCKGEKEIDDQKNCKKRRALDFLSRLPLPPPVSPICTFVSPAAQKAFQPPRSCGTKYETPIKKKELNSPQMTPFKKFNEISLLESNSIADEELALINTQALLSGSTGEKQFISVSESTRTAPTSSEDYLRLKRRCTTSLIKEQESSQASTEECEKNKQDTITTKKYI

For the substance “BRAF35, endogenous protein in HeLa or MCF7 cell extracts”, the percent of endogenous BRAF35 present in the BRCA2 complex was 2 to 4%.
